Data on one molecule can be found in patent US20100297662A1 (TAO HEALTH LIFE PHARMA, published 2010).

Assay [1] has as its target T1, amylospheroid 42 (Homo sapiens (Human), UniProt P05067 672-713).
T1 construct: also called 42ASPD; ASPD
In words: SPR, ratio of Kd values (40Aβ against 42ASPD). The procedure:
(§1) 10 μg/ml amylospheroid (42ASPD), amyloid β monomer (42Aβ, 40Aβ), and Aβ fibril (fibril) prepared from 40Aβ were coupled to CM5 sensor chips of BIACore 3000 (BIAcore) at a concentration of […] in 50 mM acetate buffer. With the use of an antibody solution subjected to two-fold serial dilution from the maximal concentration of 100 nM in a buffer (10 mM HEPES, pH 7.4, 0.15 M NaCl, 3 mM EDTA, 0.005% Surfactant P20), the association rate constant and the dissociation rate constant were determined. With the use of these constants, the dissociation constant was calculated by the following equation.
(§2) Through the same procedure as that in Example 3(3), 42ASPD, 40Aβ (Aβ monomer), and Aβ fibril (42 fibril) prepared from 42Aβ were coupled to CM5 sensor chips, and dissociation constants of the hamster antibody haASD2, the humanized antibody huASD2, and the anti-Aβ antibody 3D6 (US 20030165496 A1) with respect to the above-described proteins were determined. […]
Background: In SPR one partner is held on a chip, and binding of the other changes the refractive index at the surface.

In assay [2] the target is T1, amylospheroid 42. As to the kind of experiment: SPR, ratio of Kd values (42 fibril against 42ASPD). The procedure: as §1, §2
For assay [3], the target named is T2, N-terminus peptide (Aβ1-5) of the monomeric amyloid β-protein.
T2 construct: Synthetic 5-residue peptide
T2 peptide: DAEFR
As to the kind of experiment: competitive ELISA with 5-residue Aβ peptides, same method as Example 4. The text has this: Which one of Aβ five residue peptides the humanized antibody huASD2 was joined to was examined using the same method as that in Example 4.
A general note: An ELISA detects its analyte on a solid surface through an enzyme-linked reagent.

In assay [4] the target is T1, amylospheroid 42. As to the kind of experiment: SPR (BIAcore), antigen on CM5 chip, antibody in solution. As to the method: as §1
(§3) Through the same procedure as that in Example 3(3), 42ASPD, 40Aβ (Aβ monomer), and Aβ fibril (42 fibril) prepared from 42Aβ were coupled to CM5 sensor chips, and dissociation constants of the hamster antibody haASD2, the humanized antibody huASD2, and the anti-Aβ antibody 3D6 (US 20030165496 A1) with respect to the above-described proteins were determined. The anti-Aβ antibody 3D6 was produced as follows: synthesis genes corresponding to the mouse antibody light chain variable domain 3d6vl.aa and the synthesis gene corresponding to the heavy chain variable domain 3d6vh.aa of the same described in US 20030165496 A1 were produced by a conventional method, and were joined to the light chain constant domain and the heavy chain constant domain of a known mouse antibody, respectively, on the basis of the information of the aforementioned patent; by so doing, it was produced as a mouse IgG2b/κ molecule.

The target of assay [5] is T3, Aβ fibril (42 fibril) prepared from 42Aβ (Homo sapiens (Human), UniProt P05067 672-713).
T3 construct: Fibrillar self-assembly of Aβ1-42; also called amyloid fibril
Described as above. As to the method: as §1, §3

Assay [6] concerns the target T4, monomeric amyloid β40-protein (Aβ1-40).
T4 construct: also called 40Aβ; Aβ1-40 monomer
The description is as above. As to the method:
as §1, §3

T1 sequence (P05067 672-713 limits assumed): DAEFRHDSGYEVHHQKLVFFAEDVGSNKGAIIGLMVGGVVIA
T3 sequence (P05067 672-713 limits assumed): as above
T4 sequence (peptide, as listed by the source): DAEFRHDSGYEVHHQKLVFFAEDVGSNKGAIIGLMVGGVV

B1: humanized antibody huASD2 (antibody, V domains shown)
VH: EVQLVESGGGLVKPGGSLRLSCAASGFTFSDYFMSWVRQAPGKGLEWVGGIEIKSYFYATYYFGSVKGRFTISRDDSKNTLYLQMNSLKTEDTAVYYCTTNREVGGLDNWGQGTLVTVSS
VL: QSVLTQPSSLSASPGASASLTCTLRSGISVGGKNIYWYQQKPGSPPQYLLKYSSYSNKQLGPGVPSRFSGSKDASANAGILLISGLQSEDEADYYCSIHESNAYVFGGGTKLTVLG
notes: Humanized from haASD2; expressed from plasmids ASD2RHApG1D200 (heavy chain) and ASD2RLApLN100 (light chain); also called RHA/RLA; ASD2RHA/ASD2RLA
B1: the “fold higher affinity with ASPD than with amyloid β-monomer” value with amylospheroid 42 [1] is ~580 times. Further, the “fold higher affinity with ASPD than with amyloid fibril” value with amylospheroid 42 [2] was ~6.4 times. Besides, in assay [3], the binding result was “binds”. Moreover, the values for the Kd (with amylospheroid 42 [4]; in assay [5]; in assay [6]) were 0.18 nM, 1.15 nM and 105 nM, respectively.

In general, Kd refers to the equilibrium constant for the complex coming apart. Low readings indicate a tighter complex, high ones a looser complex.
